Test results from PMC7536116.
Read-outs that look alike come from different tables or passages of the source.

Columns and labels:
Experiment in all cases: GFET
TNF-alpha [1] = target: T1, TNF-alpha (human, UniProt P01375 77-233)
TNF-alpha [2] = target: T1, TNF-alpha; remark: listed apart in the source
TNF-alpha [3] = target: T1, TNF-alpha; remark: listed apart in the source

T1 sequence (P01375 77-233): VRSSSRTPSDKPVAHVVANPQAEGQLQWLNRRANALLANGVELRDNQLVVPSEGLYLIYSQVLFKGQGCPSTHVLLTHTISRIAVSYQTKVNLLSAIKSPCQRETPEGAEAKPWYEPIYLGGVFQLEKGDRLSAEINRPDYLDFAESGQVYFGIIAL

## TGGTGGATGGCGCAGTCGGCGACAA (ssDNA, 5'-NH2 (amine, coupled to PASE on graphene)) [VR11 aptamer]
TNF-alpha [1]
  Kd: 27.4 nM
TNF-alpha [2]
  Kd: 28.4 nM
TNF-alpha [3]
  Kd: 28.4 nM
